Measured values from FireProtDB.

Settings: whole UniProt chain shown
[1] = Equus caballus, pH 4, 25 °C, GdnHCl, CD, Citrate 50 mM
[2] = Equus caballus, pH 4, 25 °C, GdnHCl, CD, Formate 50 mM
[3] = Equus caballus, pH 4, 25 °C, Urea, CD, Citrate 50 mM
[4] = Equus caballus, pH 4, 25 °C, Urea, CD, Formate 50 mM
[5] = Escherichia coli (strain K12), pH 7, Thermal, DSC, Potassium phosphate 50 mM, KCl 0.5 M, reversible: no
[6] = Escherichia coli (strain K12), pH 7.5, 10 °C, Urea, CD, LcrH
[7] = Escherichia coli (strain K12), pH 7.5, 20 °C, Urea, CD, LcrH
[8] = Escherichia coli (strain K12), pH 7.5, 20 °C, GdnHCl, CD, HEPES 5 mM, NiCl2 5 mM, reversible: Yes

B1: DNA-Binding protein G5P wild type, P69542 (protein)
chain: MIKVEIKPSQAQFTTRSGVSRQGKPYSLNEQLCYVDLGNEYPVLVKITLDEGQPAYAPGLYTVHLSSFKVGQFGSLMIDRLRLVPAK
unfolding free energy (Enterobacteria phage fd, pH 7, 25 °C, GdnHCl, CD, MOPS 0.05 M, NaCl 0.1 M, reversible: yes): 16.3 kcal/mol

B2: Beta-lactoglobulin-1 wild type, P02758 (protein)
chain: MKCLLLALGLALMCGIQATNIPQTMQDLDLQEVAGKWHSVAMAASDISLLDSESAPLRVYIEKLRPTPEDNLEIILREGENKGCAEKKIFAEKTESPAEFKINYLDEDTVFALDTDYKNYLFLCMKNAATPGQSLVCQYLARTQMVDEEIMEKFRRALQPLPGRVQIVPDLTRMAERCRI
denaturant m value [1]: 4.74 kcal/mol/M
unfolding free energy [1]: 10.1 kcal/mol
denaturant m value [2]: 1.54 kcal/mol/M
unfolding free energy [2]: 3.92 kcal/mol
denaturant m value [3]: 2.9 kcal/mol/M
unfolding free energy [3]: 9.83 kcal/mol
denaturant m value [4]: 0.74 kcal/mol/M
unfolding free energy [4]: 2.9 kcal/mol

B3: Chemotaxis protein CheY wild type, P0AE67 (protein)
chain: MADKELKFLVVDDFSTMRRIVRNLLKELGFNNVEEAEDGVDALNKLQAGGYGFVISDWNMPNMDGLELLKTIRADGAMSALPVLMVTAEAKKENIIAAAQAGASGYVVKPFTAATLEEKLNKIFEKLGM
unfolding free energy (Escherichia coli (strain K12), pH 7, 25 °C, Urea, Fluorescence, Cacodylate 100 mM): 5.6 kcal/mol

B4: Inorganic pyrophosphatase wild type, P0A7A9 (protein)
chain: MSLLNVPAGKDLPEDIYVVIEIPANADPIKYEIDKESGALFVDRFMSTAMFYPCNYGYINHTLSLDGDPVDVLVPTPYPLQPGSVIRCRPVGVLKMTDEAGEDAKLVAVPHSKLSKEYDHIKDVNDLPELLKAQIAHFFEHYKDLEKGKWVKVEGWENAEAAKAEIVASFERAKNK
Tm (Escherichia coli (strain K12), pH 7, Thermal, CD, HEPES 20 mM, MgCl2 5 mM): 84 °C
Tm (Escherichia coli (strain K12), pH 7, Thermal, CD, HEPES 20 mM): 58 °C

B5: Protein GrpE wild type, P09372 (protein)
chain: MSSKEQKTPEGQAPEEIIMDQHEEIEAVEPEASAEQVDPRDEKVANLEAQLAEAQTRERDGILRVKAEMENLRRRTELDIEKAHKFALEKFINELLPVIDSLDRALEVADKANPDMSAMVEGIELTLKSMLDVVRKFGVEVIAETNVPLDPNVHQAIAMVESDDVAPGNVLGIMQKGYTLNGRTIRAAMVTVAKAKA
Tm (Escherichia coli (strain K12), pH 7, Thermal, CD, potassium phosphate 25 mM, reversible: yes): 48 °C
Tm (Escherichia coli (strain K12), pH 7, Thermal, DSC, potassium phosphate 25 mM, reversible: yes): 48 °C

B6: DNA-binding transcriptional dual regulator CRP wild type, P0ACJ8 (protein)
chain: MVLGKPQTDPTLEWFLSHCHIHKYPSKSTLIHQGEKAETLYYIVKGSVAVLIKDEEGKEMILSYLNQGDFIGELGLFEEGQERSAWVRAKTACEVAEISYKKFRQLIQVNPDILMRLSAQMARRLQVTSEKVGNLAFLDVTGRIAQTLLNLAKQPDAMTHPDGMQIKITRQEIGQIVGCSRETVGRILKMLEDQNLISAHGKTIVVYGTR
Tm [5]: 66.4 °C
heat capacity change of unfolding [5]: 0.42 kcal/mol/K
unfolding enthalpy (calorimetric) [5]: 131 kcal/mol
unfolding enthalpy (van 't Hoff) [5]: 231 kcal/mol
unfolding free energy (Escherichia coli (strain K12), pH 7.9, 20 °C, GdnHCl, CD, Tris-HCl 50 mM, KCl 0.1 M, reversible: yes): 7.2 kcal/mol
unfolding free energy (Escherichia coli (strain K12), pH 7.9, 20 °C, Thermal, CD, Tris-HCl 50 mM, KCl 100 mM, reversible: yes): 7.32 kcal/mol

B7: L-asparaginase 2 wild type, P00805 (protein)
chain: MEFFKKTALAALVMGFSGAALALPNITILATGGTIAGGGDSATKSNYTVGKVGVENLVNAVPQLKDIANVKGEQVVNIGSQDMNDNVWLTLAKKINTDCDKTDGFVITHGTDTMEETAYFLDLTVKCDKPVVMVGAMRPSTSMSADGPFNLYNAVVTAADKASANRGVLVVMNDTVLDGRDVTKTNTTDVATFKSVNYGPLGYIHNGKIDYQRTPARKHTSDTPFDVSKLNELPKVGIVYNYANASDLPAKALVDAGYDGIVSAGVGNGNLYKSVFDTLATAAKTGTAVVRSSRVPTGATTQDAEVDDAKYGFVASGTLNPQKARVLLQLALTQTKDPQQIQQIFNQY
unfolding free energy (Escherichia coli (strain K12), pH 7.4, 25 °C, Urea, Fluorescence, Tris-HCl 50 mM): 11.5 kcal/mol

B8: Aspartate aminotransferase wild type, P00509 (protein)
chain: MFENITAAPADPILGLADLFRADERPGKINLGIGVYKDETGKTPVLTSVKKAEQYLLENETTKNYLGIDGIPEFGRCTQELLFGKGSALINDKRARTAQTPGGTGALRVAADFLAKNTSVKRVWVSNPSWPNHKSVFNSAGLEVREYAYYDAENHTLDFDALINSLNEAQAGDVVLFHGCCHNPTGIDPTLEQWQTLAQLSVEKGWLPLFDFAYQGFARGLEEDAEGLRAFAAMHKELIVASSYSKNFGLYNERVGACTLVAADSETVDRAFSQMKAAIRANYSNPPAHGASVVATILSNDALRAIWEQELTDMRQRIQRMRQLFVNTLQEKGANRDFSFIIKQNGMFSFSGLTKEQVLRLREEFGVYAVASGRVNVAGMTPDNMAPLCEAIVAVL
denaturant m value [6]: 3.4 kcal/mol/M
unfolding free energy [6]: 24.4 kcal/mol
denaturant m value [7]: 4.8 kcal/mol/M
unfolding free energy [7]: 12 kcal/mol
unfolding free energy (Escherichia coli (strain K12), pH 7.5, 25 °C, Urea, enzyme activity, potassium phosphate 20 mM): 10 kcal/mol

B9: Peptide deformylase wild type, P0A6K3 (protein)
chain: MSVLQVLHIPDERLRKVAKPVEEVNAEIQRIVDDMFETMYAEEGIGLAATQVDIHQRIIVIDVSENRDERLVLINPELLEKSGETGIEEGCLSIPEQRALVPRAEKVKIRALDRDGKPFELEADGLLAICIQHEMDHLVGKLFMDYLSPLKQQRIRQKVEKLDRLKARA
denaturant m value [8]: 1.8 kcal/mol/M
unfolding free energy [8]: 4.4 kcal/mol
